Measurements published in US20200216495A1 (ADRX, published 2020).
Values joined by “and” are separate entries in the source; they are usually repeats but may differ in a detail not shown here. Equal entries are not always repeated. Square brackets hold non-standard residues; d marks the D form. Ends that are not written are not given here.

target: Tau40 P301L protein (human); assay: cell-based or functional assay

[dR][dI][dR][dL][dH][dW] [rirlhw] and [dW][dR][dL][dR][dI][dH][dE] [wrlrihe] are within 1.5-fold of each other in “IC50, Tau40 assay (ThT)” value: 6.97 µM for the first, 10 µM for the second.

[dW][dR][dT][dK][dT][dR][dW] [wrtktrw] and [dW][dE][dL][dK][dV][dE][dW] [welkvew] are within 1.5-fold of each other in “IC50, Tau40 assay (ThT)” value: 8.93 µM for the first, 10 µM for the second.

[dL][dK][dA][dR][dI][dH][dY][dH] [lkarihyh] and [dI][dR][dI][dH][dY][dH][dL][dK] [irihyhlk] are within 1.5-fold of each other in “IC50, Tau40 assay (ThT)” value: 10.4 µM for the first, 7.39 µM for the second.

[dK][dL][dK][dI][dV][dW] [klkivw] and [dI][dL][dK][dI][dV][dW] [ilkivw] are within 1.5-fold of each other in “IC50, Tau40 assay (ThT)” value: 6.9 µM for the first, 9.32 µM for the second.

[dW][dR][dL][dK][dH][dR][dW] [wrlkhrw] and [dL][dK][dI][dR][dI][dE][dY][dH] [lkirieyh] are within 1.5-fold of each other in “IC50, Tau40 assay (ThT)” value: 5.86 µM for the first, 8.14 µM for the second.

[dR][dI][dH][dY][dH][dL][dK][dI] [rihyhlki] and [dW][dQ][dL][dQ][dV][dR][dW] [wqlqvrw] are within 1.5-fold of each other in “IC50, Tau40 assay (ThT)” value: 6.63 µM for the first, 6.57 µM for the second.

[dV][dK][dV][dW]G[dR][dL][dW] (not fully specified (residue 5); printed as vkvwgrlw) [vkvwgrlw] and [dY][dR][dI][dR][dI][dN][dH][dL] [yririnhl] are within 1.5-fold of each other in “IC50, Tau40 assay (ThT)” value: 6.72 µM for the first, 6.5 µM for the second.

[dW][dH][dV][dR][dL][dN][dH][dL] [whvrlnhl] and [dE][dK][dI][dR][dI][dH][dY] [ekirihy] are within 1.5-fold of each other in “IC50, Tau40 assay (ThT)” value: 6.39 µM for the first, 5.58 µM for the second.

[dW][dR][dH][dK][dV][dR][dW] [wrhkvrw] and [dE][dK][dI][dR][dI][dH][dY][dH] [ekirihyh] are within 1.5-fold of each other in “IC50, Tau40 assay (ThT)” value: 5.5 µM for the first, 7.42 µM for the second.

[dT][dW][dR][dL][dV][dL] [twrlvl] and [dW][dF][dL][dR][dI][dH][dW] [wflrihw] are within 1.5-fold of each other in “IC50, Tau40 assay (ThT)” value: 7.46 µM for the first, 8.71 µM for the second.

[dF][dH][dI][dE][dI][dR][dH][dF] [fhieirhf] and [dL][dK][dV][dR][dW][dW] [lkvrww] are within 1.5-fold of each other in “IC50, Tau40 assay (ThT)” value: 6.06 µM for the first, 6.48 µM for the second.

[dL][dK][dI][dR][dI][dH][dA][dH] [lkirihah] and [dW][dE][dL][dK][dV][dR][dW] [welkvrw] are within 1.5-fold of each other in “IC50, Tau40 assay (ThT)” value: 6.41 µM for the first, 7.92 µM for the second.

[dA][dW][dA][dK][dV][dR][dW] [awakvrw] and [dA][dR][dL][dK][dA][dR][dW] [arlkarw] are within 1.5-fold of each other in “IC50, Tau40 assay (ThT)” value: 8.38 µM for the first, 11.2 µM for the second.

[dI][dH][dY][dH][dL][dK][dI][dR] [ihyhlkir] and [dF][dK][dI][dE][dI][dE][dY][dH] [fkieieyh] are within 1.5-fold of each other in “IC50, Tau40 assay (ThT)” value: 9.7 µM for the first, 10.3 µM for the second.

[dY][dR][dI][dR][dL][dE][dH][dV] [yrirlehv] and [dW][dR][dL][dK][dV][dE][dW] [wrlkvew] are within 1.5-fold of each other in “IC50, Tau40 assay (ThT)” value: 6.3 µM for the first, 6.67 µM for the second.

[dF][dH][dL][dE][dI][dR][dH][dW] [fhleirhw] and [dK][dL][dK][dI][dK][dW] [klkikw] are the same in “IC50, Tau40 assay (ThT)” value: 6.87 µM for the first, 6.87 µM for the second.

[dT][dL][dK][dI][dE][dW] [tlkiew] and [dW][dL][dK][dV][dR][dW] [wlkvrw] are within 1.5-fold of each other in “IC50, Tau40 assay (ThT)” value: 8.08 µM for the first, 5.51 µM for the second.

[dE][dR][dL][dR][dI][dH][dW] [erlrihw] and [dW][dI][dK][dI][dV][dR] [wikivr] are within 1.5-fold of each other in “IC50, Tau40 assay (ThT)” value: 9.9 µM for the first, 6.97 µM for the second.

[dW][dR][dV][dH][dF][dE][dH][dW] [wrvhfehw] and [dR][dL][dR][dI][dH][dW] [rlrihw] are within 1.5-fold of each other in “IC50, Tau40 assay (ThT)” value: 6.86 µM for the first, 6.87 µM for the second.

[dR][dL][dK][dV][dW][dW] [rlkvww] and [dR][dL][dW][dV][dR][dW] [rlwvrw] are within 1.5-fold of each other in “IC50, Tau40 assay (ThT)” value: 7.01 µM for the first, 8.02 µM for the second.

[dW][dR][dL][dL][dV][dR][dW][dW] [wrllvrww] and [dR][dL][dK][dW][dR][dW] [rlkwrw] are within 1.5-fold of each other in “IC50, Tau40 assay (ThT)” value: 6.46 µM for the first, 5.62 µM for the second.

For [dW][dW][dL][dK][dL][dR][dW][dW] [wwlklrww], the “IC50, Tau40 assay (ThT)” value was 7.64 µM.

[dL][dR][dI][dE][dI][dE][dW][dH] [lrieiewh] was tested, and the “IC50, Tau40 assay (ThT)” value was 5.89 µM and 9.68 µM.
[dW][dR][dF][dH][dI][dH][dF][dY] [wrfhihfy] was tested, and the “IC50, Tau40 assay (ThT)” value was 6.53 µM and 7 µM.
In the case of [dW][dD][dL][dR][dL][dQ][dY][dW] [wdlrlqyw], the “IC50, Tau40 assay (ThT)” value is reported as 8.33 µM and 10.1 µM.
With [dF][dK][dL][dH][dL][dK][dH][dY] [fklhlkhy] the “IC50, Tau40 assay (ThT)” value was 7.19 µM and 7.53 µM.
In the case of [dF][dE][dL][dR][dI][dK][dH][dY] [felrikhy], the “IC50, Tau40 assay (ThT)” value is reported as 6.57 µM and 12 µM.
In the case of [dW][dR][dL][dW][dI][dH][dW][dW] [wrlwihww], the “IC50, Tau40 assay (ThT)” value is reported as 5.99 µM and 7.56 µM.
[dF][dW][dL][dR][dI][dH][dW][dF] [fwlrihwf] was tested, and the “IC50, Tau40 assay (ThT)” value was 7.28 µM and 7.56 µM.
With [dW][dK][dL][dK][dL][dW][dW][dW] [wklklwww] the “IC50, Tau40 assay (ThT)” value was 9.91 µM and 10.8 µM.
[dK][dL][dK][dL][dR][dW] [klklrw] was tested, and the “IC50, Tau40 assay (ThT)” value was 5.92 µM and 5.99 µM.
With [dF][dR][dL][dR][dI][dW][dW][dF] [frlriwwf] the “IC50, Tau40 assay (ThT)” value was 6.85 µM and 10.8 µM.
In the case of [dF][dK][dL][dK][dL][dW][dW][dF] [fklklwwf], the “IC50, Tau40 assay (ThT)” value is reported as 7.22 µM and 15 µM.
With [dW][dK][dV][dW]G[dK][dV][dW] (not fully specified (residue 5); printed as wkvwgkvw) [wkvwgkvw] the “IC50, Tau40 assay (ThT)” value was 10.4 µM and 10.6 µM.
[dW][dK][dV][dW]G[dR][dV][dW] (not fully specified (residue 5); printed as wkvwgrvw) [wkvwgrvw] was tested, and the “IC50, Tau40 assay (ThT)” value was 8.42 µM and 14.1 µM.
